Assay results: the nanobody polyreactivity screen of Harvey et al. (2022)

Assay: yeast display, Sf9 membrane polyspecificity reagent, FACS + sequencing; frameworks hold sequencing errors
How it was run: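 Polyreactivity labels are assigned by the sorting gate from which each nanobody was recovered. The gates were low and high (top ~1%), set on anti-HA fluorescence for expression and streptavidin fluorescence for reagent binding. Before sorting, galactose-induced (36–48 hours) yeast display cells were stained for 1 hour at 4 °C with 10% biotinylated, detergent-solubilized Sf9 membrane reagent.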

Row | Sequence | polyreactivity (PSR sort gate)
1 | QVQLVESGGVLVQAGGSIRLSCAASGSTSYIYVMGWYRQAPGKERELVATISKNGGDTYADSVKGRFTISRDNAKNTVYLQMNSLKPEDTAVYYCNARAFRYNRRISSRYNYWGQGTQVTVSS | high polyreactivity
2 | QVQLVESGGVLVQAGGSLRISCAASGNTFVHYAMGWYRQAPGKEREFVAAISSSGGSTYYADSVKGRFTISRDNAKNTVYLQMNSLKPEDTAVYYCAAGGWPYSGGWFFQPNYDYWGQGTQVTVSS | low polyreactivity
3 | QVQLVESGGVLVQAGGSLRLSCAASARIFAYSVMGWYRQAPGKEREFVAAISWSGGRTYYAHSVKGRFTISRDNAKNTVYLQMNSLKPEDTAVYYCNAGRPLWLAYGMDYWGQGTQVTVSS | low polyreactivity
4 | QVQLVESGGVLVQAGGSLRLSCAASGFTFAKNAMGWYRQAPGKERELVATISRSGGSTYYADSVKGRFTISRDKAKNTVYLQMNSLKPEDTAVYYCNKKYKYLYDYWGQGTQVTVSS | high polyreactivity
5 | QVQLVESGGVLVQAGGSLRLSCAASGFTFVAYTMGWYRQAPGKDRELVASIPNVGSTNYADSVKGRFTISRDKAMNTVYLLMNSLKPEDTAVYYCAAEYLGWHYLYLPFRDYDSWGQGTQVTVSS | low polyreactivity
6 | QVQLVESGGVLVQAGGSLRLSCAASGFTFWDYAMGWYRHAPGKERELVAAISDNDGSTDYADSVKGRFTISRDNAKNTVYLQMNSLKPEDTAVYYCNAEIELPSKEGDYWGQGTQVTVSS | low polyreactivity
7 | QVQLVESGGVLVQAGGSLRLSCAASGGTFGVYTMGWYRQSPGKERDLVAAISWSGGSTYYADSVKGRFRISRDNAKNTVYLQINSLKPEDTAVYYCAARLKYGRIGVDHWGQGTQVTVSS | high polyreactivity
8 | QVQLVESGGVLVQAGGSLRLSCAASGRIFDRNAMGWYRQAPGKERELVAAIDDSGGDTSYADSVKGRFTISRDNAKNTVYLQMNSLKPEDTAVYYCNAGYADFVTYPRYYYWGQGTQVTVSS | low polyreactivity
9 | QVQLVESGGVLVQAGGSLRLSCAASGRIFYNYGMGWYIQAPGKERELVARITTGGRTNYADSVKGRFTISRDNAKNTVYLQMNSLKPEDTAVYYCNADGYHSRWYYYNYDYWGQGTQVTVSS | low polyreactivity
10 | QVQLVESGGVLVQAGGSLRLSCAASGRTFDRYAMGWYRQAPGKERELVAAITWSGGRTYYADSVKGRFTISRDNAKNTVYLHMNSLKPEDTAVYYCAADNSYRGYHSPYDYWGQGTQVTVSS | low polyreactivity
11 | QVQLVESGGVLVQAGGSLRLSCAASGRTFGWYAMGWYRQAPGKERELVAAITWRGGSTYYADSVKGRFTISRDNAKNTVYLQMNILKPEDTAVYYCAAAAEKRSYYWGQGTQVTVSS | high polyreactivity
12 | QVQLVESGGVLVQAGGSLRLSCAASGSIFDWYVMGWYRQAPGKERELVAAITSTGSTYYADSVKGRFTISLDNAKNTVYLQMNSLKPEDTAVYYCATSFYVYPSYYIMDYWGQGTQVTVSS | low polyreactivity
13 | QVQLVESGGVLVQAGGSLRLSCAASGSIFILYAMGWYRQAPGKEREFVAAITYRGGSTKYADSVKGRFTISRDNAKNNVYLQMNRLKPEDTAVYYCAAGGYWRSPWGSVSRYGYWGQGTQVTVSS | high polyreactivity
14 | QVQLVESGGVLVQAGGSLRLSCAASGSIFILYAMGWYRQAPGKERELVAAISSTGTTYYADSVKGRFTISRDNAKNTVYLQMNSLKPEDTAVYYCATDEHSSGRTPYDYWGQGTQVTVSS | low polyreactivity
15 | QVQLVESGGVLVQAGGSLRLSCAASGSIFWPNSMGWYRQAPGKERELVAGISYSGGRTYYADSVKGRFTISRDNAKNTVYLQMNSLKPEDTAVYYCAALSRRDYNYWGQGTQVTVSS | high polyreactivity
16 | QVQLVESGGVLVQAGGSLRLSCAASGSIFYRYAMGWYRQAPGKERELVAANSSNGVSTYYADSVKGRFTISRDNAKNTVYLQMNSLKPEDTAVYYCARDVYASPRLYTSRYNYWGQGTQVTVSS | low polyreactivity
17 | QVQLVESGGVLVQAGGSLRLSCAASGSTFFVYAMGWYRQAPGKERELVAAISSRGSTYYADSVKGRFTISRDNAKNTVYLQMNSLKPEDTAVYYCAAEYTVSYLRMDYWGQGTQVTVSS | low polyreactivity
18 | QVQLVESGGVLVQAGGSLRLSCAASGSTFLLNTMGWYRQAPGKERELVATITSTDDTNYADSVKGRFTISRDNAKNTVYLHMNSLKPEDTAVYYCAKGYLNYGRDWDFDSWGQGTQVTVSS | low polyreactivity
19 | QVQLVESGGVLVQAGGSLRLSCAASGSTFPRNAMGWYRQAPGKERELVAAISGRGVRTYYADSVKGRFTISRDNAKNTVYLQMNSLKPEDTAVYYCAAERQPYRTSSYNYWGQGTQVTVSS | high polyreactivity
20 | QVQLVESGGVLVQAGGSLRLSCAASGSTFQKYTMGWYRQAPGKERELVAGISGGGSTYYADSVKGRFTISRDNAKNTVYLQMNSLKPEDTAVYSCAAETLYTGPPPRYDYWGQGTQVTVSS | low polyreactivity
21 | QVQLVESGGVLVQAGGSLRLSCAASGSTFSYYAMGWYRQAPGKERELVAAIDSSGGRTYYADSVKGRFTISRDNAKNTVYLHMNSLKPEDTAVYYCAADASYTEGMDYWGQGTQVTVSS | high polyreactivity

Row | Sequence | polyreactivity (PSR sort gate)
22 | QVQLVESGGVLVQAGGSLRLSCAASGSTFTTNAMGWYRQAPGKERELVARISRIGASTHYADSVKGRFTISRDNAKNTVYLQMNSLKPEDTAVYYCAKSKGTPGNFGYWGQGTQVTVSS | low polyreactivity
23 | QVQLVESGGVLVQAGGSLRLSCAASGYIFNKYVMGWYRPAPGKERELVAAISASGGSTYYADSVKGRFTLSRDNAKNTVYLQMNSLKPEDTAVYYCAATLYRRMDYWGQGTQVTVSS | high polyreactivity
24 | QVQLVESGGVLVQAGGSLRLSCAATGSIFQYYAMGWSRQAPGKERELVATNRRSGGSTYYADSVKGRFTISRDTAKHTVFLQMNSLKPEDTAVYYCARRLYTWETGGWRYDSWGQGTQVTVSS | high polyreactivity
25 | QVQLVESGGVLVQARGSLRLSCAASGRTFRYYAMGWYRQAPGQEREMVATISWSGGRTSYADSVKGRFTISRDNAKNTVYLQMNSLKPEDTAVYDCAVESWLDADDSYPDSILVDYWGQGTQVTVSS | low polyreactivity
26 | QVQLVESGGVVVQAGGSLRLRCAASGITIPRYPMGWYRQAPGKERELVAAISPSGGGTYYADSVKGRFTISRDNAKNTVYLQMNSLKPEDTAVYYCAARYLGYLLSGYPPYDYWVQGTQVTVSS | high polyreactivity
27 | QVQLVESGIGLVQAGGSLRLSCAASGSTCDFYAMGWYRPAPGKERELVAAITSDGRTNYADSVKGRFTISRDNAKNTVYLQMNSLKPEDTAVYYCAVTYGYEYDYWGQGTQVTVSS | low polyreactivity
28 | QVQLVESGLGIVQAGGSLRLSCASSGSTFIFNTMVWYRQAPGKERELVAAIRLSGGSTYYADSVKGRFTISRDNAKNTVYLLINSLNPEDTAVYYCARRLATSGHTYDYWGQGTQVSVSS | low polyreactivity
29 | QVQLVESGLGLVQAGGSLRLSCAASGFIFGSYAMGWYRQAPGKERELVAAISWSGGGTYYADSVKGRFTISRDNAKNTVYLQMNSLKPEDTAVYYCNARQFSGLGYWGQGTQVTVSS | high polyreactivity
30 | QVQLVESGLGLVQAGGSLRLSCAASGSIFNIYAMGWYRQAPGKERELVAAITTGTRTYADSVKGLFTISRDNAKNTVYLLMNSLKPEDTAVDYCAAVSPTYPNTFYRYNYWGQGTQVTVSS | low polyreactivity
31 | QVQLVESGLGLVQAGGSLRLSCAASGSIFQRYAMGWYRQAPGKEREFVAAISGRGGSTYYADSVKGRFTISRDNAKNTVYLQMNSLKPEDTAVYYCAADSSRFYGRPRFYYWGQGTQVTVSS | high polyreactivity
32 | QVQLVESGLGLVQAGGSLRLSCAASGSTFYLYTMGWYRQAPGKERELVAAITYSGGRTYYADSVKGRFTISRDNAKNTVYLQMNSLKPEDTAVYYCAARRLPRPWTSTSDYWGQGTQVTVSS | high polyreactivity
33 | QVQLVESGLGLVQAGGSLRLSCASSGSICSTYAMGLYRQAPGKERELVAAITTSGGRTYYADSVKGRFTISRDNAKNSVYLQMNSLKPEDTAVYFCNAVRGGRYGLDYWGQGTQVTVSS | high polyreactivity
34 | QVQLVESGPGLVQAGGSLRLSCASSGFIFRNYPMGWYRHAPGKERELVASISRGTSTNYADSVKGRFTISRDNAKNTVYLQRNSLKPEDTAVYYCNKRFYYHPFDYWGQGTQVTVSS | high polyreactivity
35 | QVQLVESGRGLDQAGGSLRLSCAASGSTFESYVMGWYRQAPGKERELVADITKSGGNTYYADSVKGRFTISRDNWMITVYLLMNSLKPEDTAVYYCAVERGRRGMDYWGQGTQVTVSS | low polyreactivity
36 | QVQLVESGRGLVEAGGSLRLICAASGFIIRYYAMGWYRQAPWKERELVAAISTSGGRTYYADSVKGRFTISRDNAKNTVYLQMNSLKPEDTAVYYCNAYTHNRYYWGQGTQVTVSS | high polyreactivity
37 | QVQLVESGRGLVPAGGSLRLSCAASGSIFTDYAMGWSRKAPGKERELVATITWSDASTYYTDSVKGRFTISRDNAKNTVYLQMNSLKPEDTAVYYFARRSRYSKGYDYWGQGTQVTVSS | low polyreactivity
38 | QVQLVESGRGLVQAGCSLRLSCAASGSILHYNAMGWYRQAPGKERELVASITNSGRTYYADSVKGRFTISRDNAKNTDYLHMNSLKPEDTAVYYCAAQGTWRYFGHRHNYWGQGTQVTVSS | high polyreactivity
39 | QVQLVESGRGLVQAGGSLLLICAASGSTFYTNAMGWYRQAPGKERELVASITGGGSTYYADSVKGRFTISRDNAKNTVYLQMNSLKPEDTAVYYWAAVNFGGGWEFDSWGQGTKVTVSS | low polyreactivity
40 | QVQLVESGRGLVQAGGSLPLRCAASGPTFPFNAMGRYRQAPGKERELVAAISWRDGRTYYADSVKGRFTISRDNAKNTVYLHMNSLKPEDTAVYYCNVVKRRSDWGMDYWGQGTQVSVSS | high polyreactivity
41 | QVQLVESGRGLVQAGGSLPLSCAASGRTFPSNTMGWYRPAPGKERELVAAINRSGGTTYYADSVKGRCTISRDKAKNTVYLQINSLKPEDTAVYYCAVLSRYKACRKYDYWGQCTQVTVSS | high polyreactivity
